Source: US20150322137A1 (EVEC, published 2015)

Legend:
[1] = molecular target: T1, F protein of human metapneumovirus strain JPS02-76 (type B1), on infectious virus (human metapneumovirus, strain JPS02-76 …, UniProt Q6WB98 19-539); assay: cell-based or functional assay
[2] = molecular target: T2, F protein of human metapneumovirus strain JPS05-21 (type B2), on infectious virus (human metapneumovirus, strain JPS05-21 …); assay: cell-based or functional assay
[3] = molecular target: T3, F protein of human metapneumovirus strain JPS03-180 (type A1), on infectious virus (human metapneumovirus, strain JPS03-180 …); assay: cell-based or functional assay
[4] = molecular target: T2, F protein of human metapneumovirus …; assay: cell-based or functional assay; remark: listed apart in the source
[5] = molecular target: T3, F protein of human metapneumovirus …; assay: cell-based or functional assay; remark: listed apart in the source
[6] = molecular target: T4, F protein of human metapneumovirus strain JPS03-178 (type A2), on infectious virus (human metapneumovirus, strain JPS03-178 …); assay: cell-based or functional assay
[7] = molecular target: T1, F protein of human metapneumovirus …; assay: cell-based or functional assay; remark: listed apart in the source
[8] = molecular target: T2, F protein of human metapneumovirus …; assay: cell-based or functional assay; remark: listed apart in the source
[9] = molecular target: T3, F protein of human metapneumovirus …; assay: cell-based or functional assay; remark: listed apart in the source
[10] = molecular target: T4, F protein of human metapneumovirus …; assay: cell-based or functional assay; remark: listed apart in the source
[11] = molecular target: T1, F protein of human metapneumovirus …; assay: cell-based or functional assay; remark: listed apart in the source
[12] = molecular target: T2, F protein of human metapneumovirus …; assay: cell-based or functional assay; remark: listed apart in the source
[13] = molecular target: T3, F protein of human metapneumovirus …; assay: cell-based or functional assay; remark: listed apart in the source
[14] = molecular target: T4, F protein of human metapneumovirus …; assay: cell-based or functional assay; remark: listed apart in the source
[15] = molecular target: T1, F protein of human metapneumovirus …; assay: cell-based or functional assay; remark: listed apart in the source
[16] = molecular target: HA-V5-Full, hMPV (JPS02-76) FP with HA-Tag downstream of the signal peptide and linker and V5-Tag do (human metapneumovirus, strain JPS02-76 …); assay: cell fluorescent immunostaining, fixed transfected CHO-K1 cells
[17] = molecular target: FP-TM(-)-His, His-Tag-added hMPV (JPS02-76) FP lacking the transmembrane region (amino acid residues 491 to … (human metapneumovirus, strain JPS02-76 …, UniProt Q6WB98 19-490)); assay: SPR, Biacore T-200; antibody captured by anti-human IgG, FP-TM(-)-His as analyte
[18] = molecular target: T1, F protein of human metapneumovirus …; assay: cell-based or functional assay; remark: listed apart in the source

B1: EV046113 (antibody, human IgG1, kappa, V domains shown)
VH: QVQLVESGGGLVRPGGSLRLSCAASGFTFSDYFMTWIRQAPGKGLEWVSYINSIGSVIFYADSVEGRFTVSRDNTMKSLFLQMNSLTAEDTAVYYCARSCRISYGASGGFSCGMDVWGQGTPVTVSS
VL: DIQMTQSPSSLSASVGDRVTITCQASQSIRENINWYQQKTGKAPKLLIYDASILETGVPSRFSGSGSGTHFTFTISSLQPEDMATYYCQQYHHLITFGQGTRLDIKR
**Q.** What does the source list for B1?
**A.** IC50, neutralizing activity (hMPV infection of LLC-MK2 cells) [1]: 0.68 µg/mL; IC50, neutralizing activity (hMPV infection of LLC-MK2 cells) [2]: 0.39 µg/mL; IC50, neutralizing activity (hMPV infection of LLC-MK2 cells) [3]: 0.38 µg/mL; IC50, neutralizing activity (hMPV infection of LLC-MK2 cells; GraphPad Prism 6) [4]: 491 ng/mL; IC50, neutralizing activity (hMPV infection of LLC-MK2 cells; GraphPad Prism 6) [5]: 418 ng/mL; IC50, neutralizing activity (hMPV infection of LLC-MK2 cells; GraphPad Prism 6) [6]: 645 ng/mL; IC60, neutralizing activity (hMPV infection of LLC-MK2 cells; GraphPad Prism 6) [7]: 819 ng/mL; IC60, neutralizing activity (hMPV infection of LLC-MK2 cells; GraphPad Prism 6) [8]: 652 ng/mL; IC60, neutralizing activity (hMPV infection of LLC-MK2 cells; GraphPad Prism 6) [9]: 522 ng/mL; IC60, neutralizing activity (hMPV infection of LLC-MK2 cells; GraphPad Prism 6) [10]: 760 ng/mL; IC90, neutralizing activity (hMPV infection of LLC-MK2 cells; GraphPad Prism 6) [11]: 1480 ng/mL; IC90, neutralizing activity (hMPV infection of LLC-MK2 cells; GraphPad Prism 6) [12]: 2290 ng/mL; IC90, neutralizing activity (hMPV infection of LLC-MK2 cells; GraphPad Prism 6) [13]: 1390 ng/mL; IC90, neutralizing activity (hMPV infection of LLC-MK2 cells; GraphPad Prism 6) [14]: 1560 ng/mL; IC50, cell-to-cell spread inhibitory activity (LLC-MK2 cells stably expressing TMPRSS2) [15]: 108 ng/mL; IC90, cell-to-cell spread inhibitory activity (LLC-MK2 cells stably expressing TMPRSS2) [15]: 707 ng/mL; binding result [16]: binds; Kd [17]: 0.265 nM; koff [17]: 0.000123 s⁻¹; kon [17]: 463000 M⁻¹ s⁻¹

B2: EV046120 (antibody, human IgG1, lambda, V domains shown)
VH: EVQLVESGGGLVKPGGSLRLSCAASGFTFSSYSMNWVRQAPGKGLEWVSSISSSSSYIYYADSLKGRFTVSRDNAKKSLYLQMNSLRAEDTAVYYCARVDYGTNSEVGRFDPWGQGTLVTVSS
VL: QSVLTQPPSVSGTPGQRVTISCTGSSSNIGAGYAVHWYQQLPGTAPKLLIYDSINRPSGVPDRFSGSKSGTSASLAITGLQTEDEADYYCHSYDRSLSGSVFGGGTKLTVLG
**Q.** How did the “IC50, neutralizing activity (hMPV infection of LLC-MK2 cells)” value [2] turn out when B2 was run?
**A.** Its value is 0.24 µg/mL.

**Q.** And the “IC50, neutralizing activity (hMPV infection of LLC-MK2 cells)” value [3]?
**A.** The value was 0.32 µg/mL.

**Q.** And the “IC50, neutralizing activity (hMPV infection of LLC-MK2 cells; GraphPad Prism 6)” value [18]?
**A.** Its value is 241 ng/mL.

**Q.** What about the “IC50, neutralizing activity (hMPV infection of LLC-MK2 cells; GraphPad Prism 6)” value [4] of the same binder?
**A.** The value was 249 ng/mL.

**Q.** And the “IC50, neutralizing activity (hMPV infection of LLC-MK2 cells; GraphPad Prism 6)” value [5]?
**A.** The value was 300 ng/mL.

**Q.** What about the “IC50, neutralizing activity (hMPV infection of LLC-MK2 cells; GraphPad Prism 6)” value [6] of the same binder?
**A.** Its value is 97.1 ng/mL.

**Q.** What about the “IC60, neutralizing activity (hMPV infection of LLC-MK2 cells; GraphPad Prism 6)” value (“IC60, neutralizing activity” for short) [7] of the same binder?
**A.** The value was 344 ng/mL.

**Q.** What about the “IC60, neutralizing activity” value [8] of the same binder?
**A.** Its value is 301 ng/mL.

**Q.** What about the “IC60, neutralizing activity” value [9] of the same binder?
**A.** Its value is 421 ng/mL.

**Q.** What about the “IC60, neutralizing activity” value [10] of the same binder?
**A.** Its value is 138 ng/mL.

**Q.** And the “IC90, neutralizing activity (hMPV infection of LLC-MK2 cells; GraphPad Prism 6)” value (shortened to “IC90, neutralizing activity”) [11]?
**A.** Its value is 1650 ng/mL.

**Q.** And the “IC90, neutralizing activity” value [12]?
**A.** The value was 694 ng/mL.

**Q.** And the “IC90, neutralizing activity” value [13]?
**A.** Its value is 1880 ng/mL.

**Q.** And the “IC90, neutralizing activity” value [14]?
**A.** The value was 653 ng/mL.

**Q.** What about the “IC50, cell-to-cell spread inhibitory activity (LLC-MK2 cells stably expressing TMPRSS2)” value [15] of the same binder?
**A.** The value was 13.2 ng/mL.

**Q.** What about the “IC90, cell-to-cell spread inhibitory activity (LLC-MK2 cells stably expressing TMPRSS2)” value [15] of the same binder?
**A.** Its value is 66.9 ng/mL.
